Measurements published in patent US20090197798A1 (NATIONAL TAIWAN UNIVERSITY, published 2009).
Bridges are numbered along the chain shown (N, C = ends). Where no end group is shown, it is not given here.

T1: Recombinant soluble NRP1 (sNRP1) protein containing His6 and c-Myc domain tags (human, UniProt O14786-2 22-644, limits assumed)
T1 construct: Expressed in NIH-3T3 cells, purified from conditioned medium by ammonium sulfate precipitation and Ni-NTA; also called recombinant human sNRP1; recombinant NRP1; not shown: His6 and c-Myc tags
T1 sequence (looked up): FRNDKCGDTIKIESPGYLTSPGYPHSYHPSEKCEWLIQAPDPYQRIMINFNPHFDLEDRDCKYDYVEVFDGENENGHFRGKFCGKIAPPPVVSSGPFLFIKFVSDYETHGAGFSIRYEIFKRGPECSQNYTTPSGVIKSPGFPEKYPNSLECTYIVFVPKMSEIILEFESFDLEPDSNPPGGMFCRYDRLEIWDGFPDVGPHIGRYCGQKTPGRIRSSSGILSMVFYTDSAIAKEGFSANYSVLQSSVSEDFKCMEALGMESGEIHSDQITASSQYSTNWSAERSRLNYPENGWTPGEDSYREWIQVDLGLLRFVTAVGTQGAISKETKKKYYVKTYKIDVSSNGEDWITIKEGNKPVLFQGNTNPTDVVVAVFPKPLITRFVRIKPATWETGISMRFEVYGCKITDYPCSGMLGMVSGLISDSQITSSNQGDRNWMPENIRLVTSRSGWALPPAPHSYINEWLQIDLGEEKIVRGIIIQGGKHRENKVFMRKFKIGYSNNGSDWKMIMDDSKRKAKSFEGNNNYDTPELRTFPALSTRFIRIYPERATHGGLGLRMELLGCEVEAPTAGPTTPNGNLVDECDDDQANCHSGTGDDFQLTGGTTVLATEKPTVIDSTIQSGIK

B1: cyclic peptide DG2 (CRSRRIRLC) (peptide)
peptide: CRSRRIRLC
modifications: disulfide 1-9 (inferred)
notes: Chemically synthesized cyclic 9-mer (Digitalgene, Taiwan); Its core matches phage clone 4-5
B2: cyclic peptide DG1 (CRRPRMLTC) (peptide)
peptide: CRRPRMLTC
modifications: disulfide 1-9 (inferred)
notes: Chemically synthesized cyclic 9-mer (Digitalgene, Taiwan); Its core matches phage clone 4-1
B3: Human VEGF165 (ligand, UniProt P15692-4 27-191, looked up)
chain: APMAEGGGQNHHEVVKFMDVYQRSYCHPIETLVDIFQEYPDEIEYIFKPSCVPLMRCGGCCNDEGLECVPTEESNITMQIMRIKPHQGQHIGEMSFLQHNKCECRPKKDRARQENPCGPCSERRKHLFVQDPQTCKCSCKNTDSRCKARQLELNERTCRCDKPRR
notes: Bought from PeproTech; also called hVEGF

Legend:
[1] = molecular target: T1, Recombinant soluble NRP1 (sNRP1) …; assay: SPR (Biacore), NRP1 immobilized on CM5 chip, peptide injected, 25 C
Method: The binding kinetics of selected peptides with NRP1 were tested using the surface plasmon resonance based measuring system (Biacore AB) at 25° C. Recombinant NRP1 was immobilized on CM5 sensor chips by amine coupling at 400 response units using the amine coupling kit (Biacore) according to the manufacturer's instructions. Binding was detected in resonance units after injecting various concentrations of peptide at a flow rate of 30 μL/min. Sensograms of association and dissociation were recorded and analyzed using BIAevaluation software 3.0 (Biacore AB).
To identify whether any new signature motif can bind and inhibit NRP1-mediated invasion, mammalian cell-expressed NRP1 proteins were used as bait to screen a random cyclic 7-mer peptide library for NRP1-binding peptides. A Ph.D. C7C phage display library containing 10¹¹ random cyclic 7-amino acid peptides was applied for biopanning. After four rounds of screening, 63 clones were isolated. […] A consensus motif, -RRXR-, was found in nine clones by MULTALIN program alignment (Table 3). […] Surface plasmon resonance was used to measure the real-time association and dissociation of the binding of RRXR-containing peptides to NRP1. […] The slightly higher binding affinity of DG1 to NRP1 was due to a more favorable kₐ.

VEGFR2 = molecular target: T2, VEGFR2 (UniProt P35968 20-764, limits assumed); assay: SPR (Biacore), receptor immobilized on sensor chip
T2 construct: also called Flk-1/KDR

[2] = molecular target: T1, Recombinant soluble NRP1 (sNRP1) …; assay: SPR

T2 sequence (P35968 20-764 limits assumed): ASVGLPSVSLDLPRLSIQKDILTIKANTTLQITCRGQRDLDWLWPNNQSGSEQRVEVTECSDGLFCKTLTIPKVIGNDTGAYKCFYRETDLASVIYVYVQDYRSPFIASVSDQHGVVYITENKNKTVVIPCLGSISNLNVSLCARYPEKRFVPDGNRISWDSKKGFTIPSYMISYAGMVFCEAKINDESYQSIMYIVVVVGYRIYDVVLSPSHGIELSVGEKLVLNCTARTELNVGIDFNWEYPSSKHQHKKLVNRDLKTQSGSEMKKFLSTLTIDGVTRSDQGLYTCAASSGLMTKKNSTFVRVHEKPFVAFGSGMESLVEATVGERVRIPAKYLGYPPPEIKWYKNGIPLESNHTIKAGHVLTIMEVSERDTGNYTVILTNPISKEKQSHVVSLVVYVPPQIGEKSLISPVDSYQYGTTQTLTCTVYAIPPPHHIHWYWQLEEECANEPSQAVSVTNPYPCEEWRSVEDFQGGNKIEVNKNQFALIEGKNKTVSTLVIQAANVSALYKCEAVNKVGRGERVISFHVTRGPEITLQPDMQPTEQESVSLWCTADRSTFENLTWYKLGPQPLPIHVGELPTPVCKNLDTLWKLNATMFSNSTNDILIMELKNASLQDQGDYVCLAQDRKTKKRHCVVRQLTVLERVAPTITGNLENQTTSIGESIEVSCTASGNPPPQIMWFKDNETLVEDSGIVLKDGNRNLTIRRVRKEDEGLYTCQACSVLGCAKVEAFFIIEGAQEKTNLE

Row | Binder | Kd [1] | koff [1] | kon [1] | binding result (VEGFR2) | Kd [2]
1 | B1 | 5370 nM | 0.000663 s⁻¹ | 123 M⁻¹ s⁻¹ | no binding | 
2 | B2 | 1400 nM | 0.00172 s⁻¹ | 1230 M⁻¹ s⁻¹ | no binding | 
3 | B3 |  |  |  |  | 125 nM
